Data taken from patent US6491893B1, “Compounds for targeting and imaging infection and inflammation” (Biostream, Inc., priority 1999, dated 2002).
Read-outs that look alike come from different tables or passages of the source.

Assays:
[1] = cited from earlier work
[2] = cited from earlier work; remark: listed apart in the source
[3] = test system: intramuscular bacterial infections (E. coli, left posterior thigh); assay: Gamma camera imaging, T/B ratios from ROI analysis of scintigrams (Example 1, Table 1); type: in vivo, New Zealand white rabbits; settings: for average Target:Background (T/B) ratio, gamma camera images: Average of 2 rabbits
Experimental: (§1) In order to label G-CSF with radioindium (^111In), G-CSF was conjugated with diethylenetriaminepentacetic acid (DTPA) via the active ester. DTPA conjugated G-CSF was labeled with In-111 and injected into rabbits bearing intramuscular bacterial infections. Two New Zealand white rabbits weighing approximately 2-3 kg were injected in their left posterior thigh with a 0.5 ml suspension of ˜10^9 E. coli for infection imaging and biodistribution studies. Animals were injected with In-111-DTPA-G-CSF at 24 hr after bacterial injection, when the animals were judged to have moderate infections by palpation.
[…], the animals were anesthetized with ketamine/xylazine (15.0 and 1.5 mg/kg) and scintigrams were acquired using a large field of view gamma camera equipped with a parallel hole medium energy collimator. Regions-of-interest (ROI's) were drawn over the area of infection and the contralateral normal muscle and target-to-background (T/B) ratios were calculated. After acquiring the final images, the animals were sacrificed with an over dose of sodium pentobarbital and biodistribution was determined. For comparison with the imaging results, infected to normal muscle and pus to normal muscle ratios were calculated from biodistribution data.

[4] = test system: intramuscular bacterial infections (E. coli, left posterior thigh); type: in vivo, New Zealand white rabbits; settings: from biodistribution data
Experimental: as §1
At 4 and 18 hours following injection of the In-111-DTPA-G-CSF, the animals were anesthetized with ketamine/xylazine (15.0 and 1.5 mg/kg) and scintigrams were acquired using a large field of view gamma camera equipped with a parallel hole medium energy collimator. Regions-of-interest (ROI's) were drawn over the area of infection and the contralateral normal muscle and target-to-background (T/B) ratios were calculated. After acquiring the final images, the animals were sacrificed with an over dose of sodium pentobarbital and biodistribution was determined. For comparison with the imaging results, infected to normal muscle and pus to normal muscle ratios were calculated from biodistribution data.

[5] = after intravenous administration over 30 min
[6] = Average, 18 Hours Post Injection
[7] = Rabbit #1, 18 Hours Post Injection
[8] = Rabbit #2, 18 Hours Post Injection

## GM-CSF: colony stimulating factor promoting growth of progenitors of several myeloid lines
[1]; [5]
  distribution half-life (T sub ½ alpha): 5 to 15 min
  elimination phase (T sub ½ Beta): 1 to 9 h
[1]; after single subcutaneous bolus injections
  time to peak serum concentration: ≤ 4 h
[1]; single subcutaneous bolus injections, doses of 10 mμ g/kg
  elimination half-life: 174 min
[1]; subcutaneous doses of 5-10 mμ g/kg, for 8-24 h
  serum concentration achieved: >= 10 ng/mL
[1]; subcutaneous doses of 5-10 mμ g/kg
  time serum concentrations >=10 ng/mL are achieved: 8 to 24 h

B1: G-CSF: full length protein, polypeptide or peptide corresponding to natural G-CSF that binds to a CSF receptor (protein, UniProt P09919 31-207, looked up)
Granulocyte …: TPLGPASSLPQSFLLKCLEQVRKIQGDGAALQEKLVSECATYKLCHPEELVLLGHSLGIPWAPLSSCPSQALQLAGCLSQLHSGLFLYQGLLQALEGISPELGPTLDTLQLDVADFATTIWQQMEELGMAPALQPTQGAMPAFASAFQRRAGGVLVASHLQSFLEVSYRVLRHLAQP
[2]; after doses of 5-10 μg/kg, for up to 16 h
  serum concentration maintained: > 10 ng/mL
[2]; after doses of 5-10 mμ g/kg
  time serum concentrations of >10 ng/mL are maintained: up to 16 h
[2]; after short (20-30 min) intravenous infusions
  time C sub max values are maintained: 30 to 60 min
[2]; after short intravenous infusions, doses up to 60 μg/kg
  estimated terminal half-life: 45 to 432 min
[2]; after single subcutaneous injections, by 24 h
  serum concentration by 24 h: < 10 % C sub max
[2]; after single subcutaneous injections
  time to peak serum concentration: 4 to 6 h

B2: In-111-DTPA-GCSF: G-CSF conjugated with diethylenetriaminepentacetic acid (DTPA) via the active ester and labeled with In-111 (conjugate, UniProt P09919 31-207, looked up)
Granulocyte …: B1 Granulocyte …
modifications: DTPA conjugate labeled with In-111
[3]; 3 hour after injection
  T/B ratio calculated from ROI analysis of scintigrams: 3.567
[3]; 17 hours after injection
  T/B ratio calculated from ROI analysis of scintigrams: 11.87
[3]; 4 hours post injection
  average Target:Background (T/B) ratio, gamma camera images: 3.567
[3]; 18 hours post injection
  average Target:Background (T/B) ratio, gamma camera images: 11.87
[3]; Rabbit #1, 4 hours post injection
  Infected to normal tissue ratio from gamma camera images: 3.359
[3]; Rabbit #1, 18 hours post injection
  Infected to normal tissue ratio from gamma camera images: 8.643
[3]; Rabbit #2, 4 hours post injection
  Infected to normal tissue ratio from gamma camera images: 3.775
[3]; Rabbit #2, 18 hours post injection
  Infected to normal tissue ratio from gamma camera images: 15.10
[3]; rabbits with E. coli infection
  localization at sites of infection (in words): effective agent for localizing sites of infection
[4]; [6]
  Infected/normal muscle ratio: 26.24
  Pus/normal muscle ratio: 59.16
[4]; [7]
  Infected/normal muscle #1 ratio: 36.89
  Infected/normal muscle #2 ratio: 21.54
  Infected/normal muscle #3 ratio: 20.11
  Infected/normal muscle #4 ratio: 20.95
  Infected/normal muscle #5 ratio: 15.63
  Pus/normal muscle ratio: 23.56
[4]; [8]
  Infected/normal muscle #1 ratio: 39.21
  Infected/normal muscle #2 ratio: 26.17
  Infected/normal muscle #3 ratio: 37.03
  Infected/normal muscle #4 ratio: 28.44
  Infected/normal muscle #5 ratio: 16.42
  Pus/normal muscle ratio: 94.76
